The supplement of paper PMC9112550, “Optimization of the antimicrobial peptide Bac7 by deep mutational scanning” (BMC Biology, 2022)

System: Escherichia coli TOP10
Experiment: shrunken log2 fold change of peptide-encoding DNA abundance (4.5 h post-induction vs induction); higher = less antimicrobial activity (less host growth inhibition)
Settings: time post-induction: 4.5 h; library: site-saturation at positions 5, 18, 19, 20
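Also: peptides expressed intracellularly from a pBAD plasmid library in pooled LB shake-flask culture, induced with 0.3% L-arabinose, DNA abundance read by NGS, three biological replicates, DESeq2 with apeglm shrinkage.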

Sequence: RRIRARPPRLPRPRPRPHLGPRP
- shrunken log2 fold change: 0.0806

Sequence: RRIRARPPRLPRPRPRPHLIPRP
- shrunken log2 fold change: -0.0757

Sequence: RRIRARPPRLPRPRPRPHLMPRP
- shrunken log2 fold change: 0.0747

Sequence: RRIRARPPRLPRPRPRPHMQPRP
- shrunken log2 fold change: 2.87

Sequence: RRIRARPPRLPRPRPRPHMRPRP
- shrunken log2 fold change: 0.669

Sequence: RRIRARPPRLPRPRPRPHNPPRP
- shrunken log2 fold change: 0.0946

Sequence: RRIRARPPRLPRPRPRPHPNPRP
- shrunken log2 fold change: 0.21

Sequence: RRIRARPPRLPRPRPRPHRPPRP
- shrunken log2 fold change: -0.0433

Sequence: RRIRARPPRLPRPRPRPHSEPRP
- shrunken log2 fold change: -0.0859

Sequence: RRIRARPPRLPRPRPRPHSVPRP
- shrunken log2 fold change: 0.0268

Sequence: RRIRARPPRLPRPRPRPHVEPRP
- shrunken log2 fold change: 0.147

Sequence: RRIRARPPRLPRPRPRPHWEPRP
- shrunken log2 fold change: -0.00635

Sequence: RRIRARPPRLPRPRPRPHWLPRP
- shrunken log2 fold change: 0.339

Sequence: RRIRARPPRLPRPRPRPHYCPRP
- shrunken log2 fold change: -0.17

Sequence: RRIRARPPRLPRPRPRPHYKPRP
- shrunken log2 fold change: -0.424

Sequence: RRIRARPPRLPRPRPRPIAFPRP
- shrunken log2 fold change: 0.222

Sequence: RRIRARPPRLPRPRPRPICGPRP
- shrunken log2 fold change: 0.248

Sequence: RRIRARPPRLPRPRPRPIECPRP
- shrunken log2 fold change: 0.157

Sequence: RRIRARPPRLPRPRPRPIEGPRP
- shrunken log2 fold change: 0.504

Sequence: RRIRARPPRLPRPRPRPIEMPRP
- shrunken log2 fold change: 0.563

Sequence: RRIRARPPRLPRPRPRPIEVPRP
- shrunken log2 fold change: 0.0287

Sequence: RRIRARPPRLPRPRPRPIFKPRP
- shrunken log2 fold change: -0.0373

Sequence: RRIRARPPRLPRPRPRPIFRPRP
- shrunken log2 fold change: 0.205

Sequence: RRIRARPPRLPRPRPRPIFTPRP
- shrunken log2 fold change: 0.165

Sequence: RRIRARPPRLPRPRPRPIGLPRP
- shrunken log2 fold change: 0.076

Sequence: RRIRARPPRLPRPRPRPIHNPRP
- shrunken log2 fold change: -0.0611

Sequence: RRIRARPPRLPRPRPRPIIWPRP
- shrunken log2 fold change: -0.419

Sequence: RRIRARPPRLPRPRPRPIKKPRP
- shrunken log2 fold change: -0.00732

Sequence: RRIRARPPRLPRPRPRPILGPRP
- shrunken log2 fold change: 0.0597

Sequence: RRIRARPPRLPRPRPRPILIPRP
- shrunken log2 fold change: -0.374

Sequence: RRIRARPPRLPRPRPRPILVPRP
- shrunken log2 fold change: -0.122

Sequence: RRIRARPPRLPRPRPRPIMKPRP
- shrunken log2 fold change: 0.102

Sequence: RRIRARPPRLPRPRPRPINEPRP
- shrunken log2 fold change: -0.0644

Sequence: RRIRARPPRLPRPRPRPINYPRP
- shrunken log2 fold change: -0.239

Sequence: RRIRARPPRLPRPRPRPIPGPRP
- shrunken log2 fold change: 0.0653

Sequence: RRIRARPPRLPRPRPRPIPWPRP
- shrunken log2 fold change: 0.313

Sequence: RRIRARPPRLPRPRPRPIQMPRP
- shrunken log2 fold change: 0.0579

Sequence: RRIRARPPRLPRPRPRPIRGPRP
- shrunken log2 fold change: 0.0372

Sequence: RRIRARPPRLPRPRPRPIRHPRP
- shrunken log2 fold change: -0.0279

Sequence: RRIRARPPRLPRPRPRPITDPRP
- shrunken log2 fold change: -0.0703

Sequence: RRIRARPPRLPRPRPRPIWFPRP
- shrunken log2 fold change: 0.225

Sequence: RRIRARPPRLPRPRPRPIWQPRP
- shrunken log2 fold change: 0.166

Sequence: RRIRARPPRLPRPRPRPIYFPRP
- shrunken log2 fold change: -0.0784

Sequence: RRIRARPPRLPRPRPRPIYKPRP
- shrunken log2 fold change: -0.172

Sequence: RRIRARPPRLPRPRPRPKCCPRP
- shrunken log2 fold change: 0.165

Sequence: RRIRARPPRLPRPRPRPKDDPRP
- shrunken log2 fold change: 0.811

Sequence: RRIRARPPRLPRPRPRPKEWPRP
- shrunken log2 fold change: 1.16

Sequence: RRIRARPPRLPRPRPRPKFAPRP
- shrunken log2 fold change: 0.306

Sequence: RRIRARPPRLPRPRPRPKFKPRP
- shrunken log2 fold change: -0.0259

Sequence: RRIRARPPRLPRPRPRPKFRPRP
- shrunken log2 fold change: -0.043

Sequence: RRIRARPPRLPRPRPRPKGNPRP
- shrunken log2 fold change: 0.0299

Sequence: RRIRARPPRLPRPRPRPKGVPRP
- shrunken log2 fold change: 0.15

Sequence: RRIRARPPRLPRPRPRPKILPRP
- shrunken log2 fold change: -0.168

Sequence: RRIRARPPRLPRPRPRPKIPPRP
- shrunken log2 fold change: 0.174

Sequence: RRIRARPPRLPRPRPRPKMFPRP
- shrunken log2 fold change: -0.0487

Sequence: RRIRARPPRLPRPRPRPKMLPRP
- shrunken log2 fold change: 0.332

Sequence: RRIRARPPRLPRPRPRPKRIPRP
- shrunken log2 fold change: 0.122

Sequence: RRIRARPPRLPRPRPRPKRLPRP
- shrunken log2 fold change: 0.656

Sequence: RRIRARPPRLPRPRPRPKRPPRP
- shrunken log2 fold change: 1.03

Sequence: RRIRARPPRLPRPRPRPKSCPRP
- shrunken log2 fold change: 0.129

Sequence: RRIRARPPRLPRPRPRPKTEPRP
- shrunken log2 fold change: 0.38

Sequence: RRIRARPPRLPRPRPRPKWKPRP
- shrunken log2 fold change: -0.291

Sequence: RRIRARPPRLPRPRPRPKWQPRP
- shrunken log2 fold change: 0.0511

Sequence: RRIRARPPRLPRPRPRPKYLPRP
- shrunken log2 fold change: -0.299

Sequence: RRIRARPPRLPRPRPRPLACPRP
- shrunken log2 fold change: 0.695

Sequence: RRIRARPPRLPRPRPRPLALPRP
- shrunken log2 fold change: 0.668

Sequence: RRIRARPPRLPRPRPRPLCAPRP
- shrunken log2 fold change: 0.704

Sequence: RRIRARPPRLPRPRPRPLCGPRP
- shrunken log2 fold change: 0.467

Sequence: RRIRARPPRLPRPRPRPLCMPRP
- shrunken log2 fold change: -0.125

Sequence: RRIRARPPRLPRPRPRPLCWPRP
- shrunken log2 fold change: 0.43

Sequence: RRIRARPPRLPRPRPRPLEAPRP
- shrunken log2 fold change: 1.21

Sequence: RRIRARPPRLPRPRPRPLEIPRP
- shrunken log2 fold change: 0.0728

Sequence: RRIRARPPRLPRPRPRPLENPRP
- shrunken log2 fold change: 0.595

Sequence: RRIRARPPRLPRPRPRPLEPPRP
- shrunken log2 fold change: 0.451

Sequence: RRIRARPPRLPRPRPRPLEQPRP
- shrunken log2 fold change: 0.156

Sequence: RRIRARPPRLPRPRPRPLEVPRP
- shrunken log2 fold change: 0.676

Sequence: RRIRARPPRLPRPRPRPLEYPRP
- shrunken log2 fold change: -0.498

Sequence: RRIRARPPRLPRPRPRPLFSPRP
- shrunken log2 fold change: -0.124

Sequence: RRIRARPPRLPRPRPRPLGHPRP
- shrunken log2 fold change: 0.134

Sequence: RRIRARPPRLPRPRPRPLGRPRP
- shrunken log2 fold change: 0.321

Sequence: RRIRARPPRLPRPRPRPLHMPRP
- shrunken log2 fold change: 1.15

Sequence: RRIRARPPRLPRPRPRPLICPRP
- shrunken log2 fold change: 0.341

Sequence: RRIRARPPRLPRPRPRPLITPRP
- shrunken log2 fold change: 0.305

Sequence: RRIRARPPRLPRPRPRPLKFPRP
- shrunken log2 fold change: -0.38

Sequence: RRIRARPPRLPRPRPRPLKKPRP
- shrunken log2 fold change: 0.0777

Sequence: RRIRARPPRLPRPRPRPLLEPRP
- shrunken log2 fold change: 0.834

Sequence: RRIRARPPRLPRPRPRPLMRPRP
- shrunken log2 fold change: 1.45

Sequence: RRIRARPPRLPRPRPRPLNPPRP
- shrunken log2 fold change: -0.111

Sequence: RRIRARPPRLPRPRPRPLPIPRP
- shrunken log2 fold change: 0.205

Sequence: RRIRARPPRLPRPRPRPLPTPRP
- shrunken log2 fold change: 0.771

Sequence: RRIRARPPRLPRPRPRPLQKPRP
- shrunken log2 fold change: 0.586

Sequence: RRIRARPPRLPRPRPRPLQLPRP
- shrunken log2 fold change: 0.179

Sequence: RRIRARPPRLPRPRPRPLRKPRP
- shrunken log2 fold change: 0.62

Sequence: RRIRARPPRLPRPRPRPLRLPRP
- shrunken log2 fold change: 0.809

Sequence: RRIRARPPRLPRPRPRPLRRPRP
- shrunken log2 fold change: 1.15

Sequence: RRIRARPPRLPRPRPRPLTKPRP
- shrunken log2 fold change: 0.339

Sequence: RRIRARPPRLPRPRPRPLVCPRP
- shrunken log2 fold change: 0.483

Sequence: RRIRARPPRLPRPRPRPLYFPRP
- shrunken log2 fold change: -0.282

Sequence: RRIRARPPRLPRPRPRPMCWPRP
- shrunken log2 fold change: 0.737

Sequence: RRIRARPPRLPRPRPRPMDPPRP
- shrunken log2 fold change: 0.0606

Sequence: RRIRARPPRLPRPRPRPMDQPRP
- shrunken log2 fold change: -0.194

Sequence: RRIRARPPRLPRPRPRPMEFPRP
- shrunken log2 fold change: -0.117

Sequence: RRIRARPPRLPRPRPRPMFHPRP
- shrunken log2 fold change: -0.275

Sequence: RRIRARPPRLPRPRPRPMFQPRP
- shrunken log2 fold change: -0.0957

Sequence: RRIRARPPRLPRPRPRPMHSPRP
- shrunken log2 fold change: -0.106

Sequence: RRIRARPPRLPRPRPRPMHYPRP
- shrunken log2 fold change: -0.0399

Sequence: RRIRARPPRLPRPRPRPMKKPRP
- shrunken log2 fold change: 0.143

Sequence: RRIRARPPRLPRPRPRPMLKPRP
- shrunken log2 fold change: 0.216

Sequence: RRIRARPPRLPRPRPRPMNAPRP
- shrunken log2 fold change: 0.376

Sequence: RRIRARPPRLPRPRPRPMNIPRP
- shrunken log2 fold change: -0.583

Sequence: RRIRARPPRLPRPRPRPMNKPRP
- shrunken log2 fold change: -0.00986

Sequence: RRIRARPPRLPRPRPRPMNVPRP
- shrunken log2 fold change: -0.163

Sequence: RRIRARPPRLPRPRPRPMPMPRP
- shrunken log2 fold change: 0.695

Sequence: RRIRARPPRLPRPRPRPMPNPRP
- shrunken log2 fold change: 0.353

Sequence: RRIRARPPRLPRPRPRPMQIPRP
- shrunken log2 fold change: 0.446

Sequence: RRIRARPPRLPRPRPRPMTAPRP
- shrunken log2 fold change: 0.433

Sequence: RRIRARPPRLPRPRPRPMVKPRP
- shrunken log2 fold change: -0.00629

Sequence: RRIRARPPRLPRPRPRPMWDPRP
- shrunken log2 fold change: -0.103

Sequence: RRIRARPPRLPRPRPRPMWEPRP
- shrunken log2 fold change: -0.000921

Sequence: RRIRARPPRLPRPRPRPMYVPRP
- shrunken log2 fold change: -0.0341

Sequence: RRIRARPPRLPRPRPRPNCTPRP
- shrunken log2 fold change: 0.172

Sequence: RRIRARPPRLPRPRPRPNDAPRP
- shrunken log2 fold change: -0.0891

Sequence: RRIRARPPRLPRPRPRPNDQPRP
- shrunken log2 fold change: 0.226

Sequence: RRIRARPPRLPRPRPRPNHSPRP
- shrunken log2 fold change: -0.55

Sequence: RRIRARPPRLPRPRPRPNIEPRP
- shrunken log2 fold change: 0.0171

Sequence: RRIRARPPRLPRPRPRPNIGPRP
- shrunken log2 fold change: -0.0734

Sequence: RRIRARPPRLPRPRPRPNIHPRP
- shrunken log2 fold change: -0.333

Sequence: RRIRARPPRLPRPRPRPNINPRP
- shrunken log2 fold change: -0.349

Sequence: RRIRARPPRLPRPRPRPNKYPRP
- shrunken log2 fold change: -0.449

Sequence: RRIRARPPRLPRPRPRPNMKPRP
- shrunken log2 fold change: -0.348

Sequence: RRIRARPPRLPRPRPRPNMLPRP
- shrunken log2 fold change: -0.424

Sequence: RRIRARPPRLPRPRPRPNNMPRP
- shrunken log2 fold change: -0.516

Sequence: RRIRARPPRLPRPRPRPNPEPRP
- shrunken log2 fold change: 0.0539

Sequence: RRIRARPPRLPRPRPRPNPFPRP
- shrunken log2 fold change: -0.0899

Sequence: RRIRARPPRLPRPRPRPNPNPRP
- shrunken log2 fold change: 0.187

Sequence: RRIRARPPRLPRPRPRPNQAPRP
- shrunken log2 fold change: -0.117

Sequence: RRIRARPPRLPRPRPRPNQVPRP
- shrunken log2 fold change: -0.0439

Sequence: RRIRARPPRLPRPRPRPNRPPRP
- shrunken log2 fold change: -0.111

Sequence: RRIRARPPRLPRPRPRPNRTPRP
- shrunken log2 fold change: 0.197

Sequence: RRIRARPPRLPRPRPRPNRVPRP
- shrunken log2 fold change: 0.0397

Sequence: RRIRARPPRLPRPRPRPNSCPRP
- shrunken log2 fold change: -0.205

Sequence: RRIRARPPRLPRPRPRPNTFPRP
- shrunken log2 fold change: -0.0206

Sequence: RRIRARPPRLPRPRPRPNVLPRP
- shrunken log2 fold change: 0.00594

Sequence: RRIRARPPRLPRPRPRPNVRPRP
- shrunken log2 fold change: 0.0345

Sequence: RRIRARPPRLPRPRPRPNWVPRP
- shrunken log2 fold change: -0.361

Sequence: RRIRARPPRLPRPRPRPNYQPRP
- shrunken log2 fold change: -0.418

Sequence: RRIRARPPRLPRPRPRPNYYPRP
- shrunken log2 fold change: -0.414

Sequence: RRIRARPPRLPRPRPRPPCEPRP
- shrunken log2 fold change: 0.716

Sequence: RRIRARPPRLPRPRPRPPCKPRP
- shrunken log2 fold change: 0.204

Sequence: RRIRARPPRLPRPRPRPPDCPRP
- shrunken log2 fold change: 0.56
